Measurements reported in patent US20140142049A1, “PEGYLATED APELIN AND USES THEREOF” (priority 2011, published 2014).

T1: APJ receptor (Homo sapiens, UniProt P35414)
T1 construct: purchased Perkin Elmer, Waltham, Mass; host or cells: transfected CHO cells (membrane fraction)
T1 sequence (P35414 1-380): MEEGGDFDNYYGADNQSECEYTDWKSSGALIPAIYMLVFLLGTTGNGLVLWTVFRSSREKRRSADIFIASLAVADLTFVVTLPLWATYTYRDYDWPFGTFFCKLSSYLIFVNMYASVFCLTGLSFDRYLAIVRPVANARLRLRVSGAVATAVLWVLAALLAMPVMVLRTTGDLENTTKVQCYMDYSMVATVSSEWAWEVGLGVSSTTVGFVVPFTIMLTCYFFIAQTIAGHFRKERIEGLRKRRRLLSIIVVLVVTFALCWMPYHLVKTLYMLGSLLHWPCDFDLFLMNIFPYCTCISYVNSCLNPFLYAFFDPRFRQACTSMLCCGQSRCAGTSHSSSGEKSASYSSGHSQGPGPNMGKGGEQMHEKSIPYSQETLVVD

T2: APJ receptor in a membrane fraction from transfected CHO cells (Perkin Elmer) (UniProt P35414 1-380, limits assumed)
T2 construct: whole, on cells; The receptor stood in a membrane fraction of transfected CHO cells, not on whole cells
T2 sequence (looked up): T1 sequence (P35414 1-380)


Assays:
APJ receptor = molecular target: T1, APJ receptor; experiment: APJ receptor binding assay (competitive radioligand binding); conditions: negative control
Procedure: The binding was performed using competition with ^125I-labelled [Glp^65, Nle^75, Tyr^77]-apelin13 probe for binding to the APJ receptor in a membrane fraction from the transfected CHO cells (Perkin Elmer, Waltham, Mass.). Serially diluted peptide was incubated with membrane and probe for 1 hour at room temperature. The mixture was then filtered over a 1.2 um glass fiber type C filterplate (Millipore Corp., Billerica, Mass.), preblocked with 0.5% polyethylenimine. The plate was washed 4 times with 200 ul ice cold binding buffer and then another 4 times with ice cold 50 mM Tris-HCl, pH7.4, dried and counted with scintillation fluid. The data was analyzed with Graphpad Prism 4 (GraphPad Software, Inc, La Jolla, Calif.) using nonlinear regression.

[1] = molecular target: T2, APJ receptor in a membrane fraction …; experiment: competitive radioligand binding, 125I-[Glp65, Nle75, Tyr77]-apelin13 probe, APJ membranes from transfected CHO cells
Procedure: The mixture was then filtered over a 1.2 um glass fiber type C filterplate (Millipore Corp., Billerica, Mass.), preblocked with 0.5% polyethylenimine. The plate was washed 4 times with 200 ul ice cold binding buffer and then another 4 times with ice cold 50 mM Tris-HCl, pH7.4, dried and counted with scintillation fluid. The data was analyzed with Graphpad Prism 4 (GraphPad Software, Inc, La Jolla, Calif.) using nonlinear regression.

binding to APJ receptor (in words) (APJ receptor) | binding result [1] | Molecule
no binding |  | α-MSH: 13 amino acid α-MSH peptide negative control
 | no binding | SYSMEHFRWGKPV (peptide, UniProt P01189 138-150, looked up, also called negative control) [13 amino acid α-MSH peptide]
